Results on one molecule are retold here after publication PMC6737903, “The Hox gene Abdominal-B uses Doublesex^F as a cofactor to promote neuroblast apoptosis in the Drosophila central nervous system” (Development (Cambridge, England), 2019).

For this assay, the target named is T1, His-Dsx^CR (Dsx common region, aa residues 1-397) (Drosophila, UniProt P23023 1-397).
T1 construct: Doublesex (Dsx), Drosophila, region common to the male and female isoforms, aa residues 1-397; source: bacterially expressed (0.5 mM IPTG, 18°C, 2 h), cell lysate for the pulldown; purified and dialyzed for EMSA; not shown: His tag, N-terminal, kept
T1 sequence (P23023 1-397): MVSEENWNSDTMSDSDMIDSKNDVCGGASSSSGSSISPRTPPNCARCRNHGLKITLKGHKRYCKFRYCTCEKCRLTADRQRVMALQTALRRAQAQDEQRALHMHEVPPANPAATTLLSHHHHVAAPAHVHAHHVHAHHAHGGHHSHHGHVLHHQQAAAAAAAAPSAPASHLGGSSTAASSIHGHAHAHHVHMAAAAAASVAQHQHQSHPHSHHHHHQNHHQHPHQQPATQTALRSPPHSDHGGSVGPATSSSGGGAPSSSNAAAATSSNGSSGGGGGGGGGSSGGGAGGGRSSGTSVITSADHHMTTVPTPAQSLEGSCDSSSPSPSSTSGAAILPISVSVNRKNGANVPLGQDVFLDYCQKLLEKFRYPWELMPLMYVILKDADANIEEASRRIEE
Briefly: pull-down; GST pulldown: GST-tagged AbdB proteins or GST alone as bait; bacterially expressed His-tagged Dsx proteins as input cell lysates; Western blot; three repetitions. Conditions: one partner purified. Background: In western blotting, separated proteins are transferred to a membrane and probed.

B1: GST-AbdB-N (truncated version of AbdB-r, aa residues 89-270) (domain or fragment)
chain: not shown
notes: Abdominal-B (AbdB), Drosophila, regulatory isoform AbdB-r, aa residues 89-270; printed length of AbdB-r by the limits: 270; numbers count on: the AbdB-r isoform; The results say that AbdB-N lacks the first 89 amino acids; the methods give aa residues 89-270; also called GST-tagged AbdB-N; source: bacterially expressed (0.5 mM IPTG, 18°C, 2 h); GST-tagged bait in the pulldown; used as protein (50 …)
B1: the binding result is reported as “binds”.
